Assay results: PMC10244618
Where “and” joins values, the source holds several entries; their conditions need not be identical. Equal entries are not always repeated.

B1: NF2 (merlin) isoform 7, human, full length (507 aa, lacks exons 2-3 = isoform-1 residues 39-121; exon-16 C-terminus), P35240-4 (parent)
chain: MAGAIASRMSFSSLKRKQPKTFTVRIVTMDAEMEFNCEVKKQILDEKIYCPPEASVLLASYAVQAKYGDYDPSVHKRGFLAQEELLPKRVINLYQMTPEMWEERITAWYAEHRGRARDEAEMEYLKIAQDLEMYGVNYFAIRNKKGTELLLGVDALGLHIYDPENRLTPKISFPWNEIRNISYSDKEFTIKPLDKKIDVFKFNSSKLRVNKLILQLCIGNHDLFMRRRKADSLEVQQMKAQAREEKARKQMERQRLAREKQMREEAERTRDELERRLLQMKEEATMANEALMRSEETADLLAEKAQITEEEAKLLAQKAAEAEQEMQRIKATAIRTEEEKRLMEQKVLEAEVLALKMAEESERRAKEADQLKQDLQEAREAERRAKQKLLEIATKPTYPPMNPIPAPLPPDIPSFNLIGDSLSFDFKDTDMKRLSMEIEKEKVEYMEKSKHLQEQLNELKTEIEALKLKERETALDILHNENSDRGGSSKHNTIKKPQAQGRRPICI

Variants of: B1
Assay: reverse yeast two-hybrid deep mutational scan (rY2H-seq): NF2 isoform 7 mutant library as bait mated with wild-type prey strains; selection on medium lacking adenine for non-interacting pairs; NextSeq paired-end sequencing; enrichment vs …
Details: yeast diploids after mating (RBait_S3 x RPrey_S3), 30 °C, selection for reporter genes on NB agar, HIGHER = WEAKER BINDING (the opposite of display enrichments): higher = stronger loss of interaction: reverse Y2H selects yeast in which bait and prey do NOT interact (growth without adenine), so a …, hits-only table, scale: rY2H score, numbering: uniprot, sequence starts at 1
[1] = with EMILIN1 (elastin microfibril interfacer 1), Q9Y6C2, human ABL2 co-expressed as the kinase-dead K35M mutant …
[2] = with EMILIN1 (elastin microfibril interfacer 1), Q9Y6C2, human tyrosine kinase ABL2 co-expressed as the active kinase …
[3] = with KDM1A (lysine-specific histone demethylase 1A; the table's label AOF2 is a gene synonym of KDM1A), O60341, human tyrosine kinase ABL2 co-expressed as the active kinase …
[4] = with PIK3R3 (phosphatidylinositol 3-kinase regulatory subunit gamma), Q92569, human tyrosine kinase ABL2 co-expressed as the active kinase …
[5] = with KDM1A (lysine-specific histone demethylase 1A; the table's label AOF2 is a gene synonym of KDM1A), O60341, human ABL2 co-expressed as the kinase-dead K35M mutant …
[6] = with NF2 C-terminal domain (wild type; homomeric NF2-NF2 interaction), P35240, human ABL2 co-expressed as the kinase-dead K35M mutant …, partner unresolved

| Variant | enrichment [1] | enrichment [2] | enrichment [3] | enrichment [4] | enrichment [5] | enrichment [6] |
| --- | --- | --- | --- | --- | --- | --- |
| E296L | 2.9 | – | – | – | – | – |
| N137L | 2.2 | 2.24 | 1.53 | 1.5 | – | – |
| A385L | 1.74 | – | 1.94 | – | 1.79 | 1.47 and 2.16 |
| Q327K | 1.55 | – | – | – | – | – |
| E338A | 3.66 | 4.28 | 6.92 | 4.09 | 2.42 | – |
| P405Q | 3.57 and 2.37 | – | – | 4.58 | – | – |
| A381K | 4.94 | 10.4 | 6.12 | – | – | – |
| M343A | 2.55 and 1.66 | 2.55 and 2.14 | – | – | – | – |
| E259T | 17.4 and 9.29 | 19.6 | – | – | 38.4 | 4.23 |
| R253K | 5.53 | 10.6 | – | – | 6.44 and 7.44 | 1.43 |
| D374K | 2.38 | – | – | 5.15 | – | – |
| T297A | 2.57 | – | 2.94 | – | – | – |
| K281A | 6.85 | – | – | – | – | – |
| R25L | 3.54 | – | 7.07 | – | 4.09 | – |
| A312G | 1.62 | – | – | – | – | – |
| R341E | 3.61 | – | – | 6.39 | – | 2.88 |
| M343E | 2.88 and 3.18 | 3.19 | 2.07 and 4.72 | 1.45 | 3.76 | – |
| Y161W | 3.13 and 2.01 | 6.81 | – | 5.85 | – | – |
| L390W | 1.53 | – | – | – | – | – |
| E337K | 2.71 | 4.3 and 3.24 | – | – | 2.29 | – |
| T394L | 5.41 | – | – | 9.86 | 13.8 | 9 |
| R263L | 3.17 | – | – | – | – | – |
| L58K | 3.39 | 9.82 and 9.59 | 7.51 | – | 7.46 and 14.7 | 2.82 |
| H159S | 21.9 | – | – | – | – | 18 |
| H491N | 1.59 | – | – | – | – | – |

| Variant | enrichment [1] | enrichment [2] | enrichment [3] | enrichment [4] | enrichment [5] | enrichment [6] |
| --- | --- | --- | --- | --- | --- | --- |
| R113C | 3.78 and 3.75 | 7.86 and 3.66 | 4.42 and 5.11 | 7.41 | 4.82 and 6.06 | – |
| E338R | 2.37 | – | – | – | – | – |
| E323K | 1.53 | 1.69 | – | 4.79 | – | – |
| K66E | 2.7 | – | 3.77 | 4.55 | – | – |
| T308E | 2.33 | – | – | – | – | 3.16 |
| Q376L | 2.08 | – | – | – | – | 3.07 |
| R384A | 2.36 | – | – | – | – | 2.38 |
| R270L | 1.78 | 6.66 | – | – | – | 2.39 |
| R115C | 2.2 | – | 3.91 | 1.62 | 3.51 and 3.33 | – |
| R379A | 2.05 | 2.9 | – | – | 2 | – |
| D476K | 6.16 | 4.37 | – | 5.97 | – | – |
| M431K | 2.78 | – | – | – | – | – |
| M401W | 2.39 | 2.1 and 5.12 | – | – | – | – |
| M431E | 5.53 | – | – | – | 3.66 | – |
| L301E | 7.29 | 1.77 | – | – | 4.8 | 3.42 |
| A240S | 2.4 | – | 1.71 | – | – | – |
| I418W | 16.4 | – | – | – | 19.8 | – |
| L342E | 3.3 and 9.12 | 3.94 | – | – | 4.91 | 1.9 |
| L291P | 1.99 | – | – | – | – | – |
| L158E | 4.99 | 4.25 and 2.98 | – | – | – | – |
| P163K | 5.55 | – | 5.58 | – | 7.04 | – |
| G146L | 2.08 | 6.29 | – | – | – | – |
| Q261L | 4.37 | – | – | – | – | – |
| S60L | 2.18 | – | – | – | 2.95 | – |
| K66A | 2.97 | 3.9 | – | 5.98 | 3.6 | – |

| Variant | enrichment [1] | enrichment [2] | enrichment [3] | enrichment [4] | enrichment [5] | enrichment [6] |
| --- | --- | --- | --- | --- | --- | --- |
| K330E | 2.8 and 1.9 | 1.83 | – | – | 4.14 and 1.58 | – |
| Y161A | 2.53 | 2.63 | 2.23 | 2.72 | – | 2.34 |
| A322E | 3.28 | – | – | – | – | 2.97 |
| E337T | 5.26 | – | – | – | – | – |
| R208C | 2.09 | – | – | – | – | – |
| E360G | 2.14 | – | – | – | 1.54 | – |
| I178K | 6.13 | – | – | – | – | 2.57 |
| K211I | 3.12 | 3.16 | 2.6 | 2.81 and 3.72 | 5.27 | 2.67 |
| T332L | 1.4 | – | – | 2.31 | – | – |
| P409A | 2.09 | 3.21 and 3.14 | 3.57 and 4.04 | – | 4.62 | – |
| Y398F | 1.39 and 2 | 1.38 and 1.78 | 2.06 | – | 1.87 | – |
| M326E | 4.89 | 3.65 | 1.86 | – | 6.72 | 1.94 |
| A333T | 2.19 | – | – | – | – | – |
| T397R | 2.87 and 2.64 | – | – | – | 2.17 | – |
| I463A | 5.41 | – | – | – | – | – |
| D30L | 3.86 | – | – | – | – | – |
| I334E | 2.52 | – | – | 2.25 | 4.73 and 1.72 | – |
| K318L | 2.66 | 1.75 | – | – | – | – |
| V74L | 3.98 | – | – | – | – | – |
| A298K | 1.79 | – | – | – | – | – |
| L256A | 5.54 | – | 2.38 | – | – | – |
| G157L | 1.8 and 2.26 | 7.41 and 6.52 | 10.1 and 8.48 | – | 2.15 and 1.62 | 1.76 |
| M401A | 2.05 | – | 3.23 and 2.41 | 1.56 | 3.12 | – |
| Y161L | 3.35 and 1.58 | – | – | 2.22 | 2.08 | – |
| N457L | 3.83 | – | – | – | – | – |

| Variant | enrichment [1] | enrichment [2] | enrichment [3] | enrichment [4] | enrichment [5] | enrichment [6] |
| --- | --- | --- | --- | --- | --- | --- |
| R227K | 1.95 | – | – | – | – | – |
| N180T | 1.38 | – | – | – | – | – |
| I334K | 1.69 | – | 3.87 | 2.88 | 2.46 | – |
| D69A | 2.53 | – | – | – | – | – |
| E303V | 5.6 and 16.3 | – | – | – | – | – |
| G219E | 1.55 | – | – | – | – | – |
| T28L | 5.37 | – | – | – | – | – |
| T168L | 2.75 | 6.59 and 12.1 | – | – | 7.24 | – |
| I334L | 1.59 and 1.85 | – | 3.11 | 1.39 | – | – |
| I171K | 2.56 | 1.76 | 8.42 | 6.85 | 4.6 | – |
| E472R | 2.84 and 2.55 | – | – | – | – | – |
| A302E | 4.06 | – | – | – | 2.49 and 5 | – |
| K340E | 2.44 and 2.85 | 4.17 and 3.5 | 1.71 and 2.96 | 5 | 1.93 and 2.13 | 2.5 and 3.18 |
| Q317E | 1.79 | – | – | – | – | 4.2 |
| Q373Y | 2.52 | 3.17 | – | – | – | – |
| L348E | 2.15 | 2.19 | – | – | – | 1.71 |
| T397A | 2.04 | – | – | – | 1.66 | – |
| K340A | 2.47 | 2.67 | 3.04 and 2.28 | 1.46 | 3.4 and 3.43 | – |
| Q373A | 2.83 and 2.82 | – | – | 4.51 | 7.31 and 3.66 | – |
| T473L | 4.41 | – | – | 4.41 | 8.75 | 3.74 and 2.38 |
| K366A | 3.27 | – | – | – | – | – |
| G114A | 7.29 | – | – | 3.53 | – | 2.02 |
| E265L | 3.19 | 3.78 | 4.47 | – | 7.66 | – |
